Experimental data taken from the DeepSol protein solubility set.

Assay: soluble on expression in E. coli; label from the status in PepcDB or PDB records

| Sequence | soluble on expression in E. coli |
| --- | --- |
| MLRFTNCSCKTFVKSSYKLNIRRMNSSFRTETDAFGEIHVPADKYWGAQTQRSFQNFKIGGARERMPLPLVHAFGVLKKSAAIVNESLGGLDPKISKAIQQAADEVASGKLDDHFPLVVFQTGSGTQSNMNANEVISNRAIEILGGKIGSKQVHPNNHCNQSQSSNDTFPTVMHIAASLQIQNELIPELTNLKNALEAKSKEFDHIVKIGRTHLQDATPLTLGQEFSGYVQQVENGIQRVAHSLKTLSFLAQGGTAVGTGLNTKPGFDVKIAEQISKETGLKFQTAPNRFEALAAHDAIVECSGALNTLACSLFKIAQDIRYLGSGPRCGYHELMLPENEPGSSIMPGKVNPTQNEALTQVCVQVMGNNAAITFAGSQGQFELNVFKPVMIANLLNSIRLITDAAYSFRVHCVEGIKANEPRIHELLTKSLMLVTALNPKIGYDAASKVAKNAHKKGITLKESALELGVLTEKEFDEWVVPEHMLGPK | soluble |
| MTAFSTLNVLPPAQLTNLNELGYLTMTPVQAAALPAILAGKDVRVQAKTGSGKTAAFGLGLLQQIDASLFQTQALVLCPTRELADQVAGELRRLARFLSNTKILTLCGGQPFGMQRDSLQHAPHIIVATPGRLLDHLQKGTVSLDALNTLVMDEADRMLDMGFSDAIDDVIRFAPASRQTLLFSATWPEAIAAISGRVQRDPLAIEIDSTDALPPIEQQFYETSSKGKIPLLQRLLSLHQPSSCVVFCNTKKDCQSVCDALNEVGQSALSLHGDLEQRDRDQTLVRFANGSARVLVATDVAARGLDIKSLELVVNFELAWDPEVHVHRIGRTARAGNSGLAISFCAPEEAQRANIISDMLQIKLNWQTLPANSSIVPLEAEMATLCIDGGKKAKMRPGDVLGALTGDIGLDGADIGKIAVHPAHVYVAVRQAVAHKPWKQLQGGKIKGKTCRVRLLK | soluble |
| MEEIDDKSKFKVPSWAAKPPNGAHLDVQKGDALIQKLLIDDKKAYYFGRNNKQVDFAVEHASCSRVHALLLYHGLLQRFALIDMDSSHGTFLGNVRLRPLEVVFMDPGTQFHLGASTRKYSVRLKTEHHVEDDPTVAASDEQLDHQTSYNTAQNRRIPQLPISVEEARRKKRPRGNVAFLEEEEVINPEDVDPSVGRFRNLVTTAIISTNPNKRPGDPKRSEPPRKIVRPGRELMSAPLSSTFGPMALNAAPDLELYGKLLPEPGHHQYVTSTATEDEADDHHKKRYAKEAWPGRKPGAGIF | soluble |
| MTSIQQRAELQRRIWQIANDVRGTVDGWDFKQYVLGALFYRFISENFAAHMEAGDDGIRYAELPDSVITPELKDDAIKTKGYFIYPSQLFANVVARANTNDSLNTDLAAIFTAIESSANGYPSEQDIKGLFADFDTTSNRLGNTVKDKNQRLAAVLKGVAELDFGPFDDAHIDLFGDAYEFLISNYAANAGKSGGEFFTPQHVSRLIARLALHGQKSVNKIYDPACGSGSLLLQAKKPFDERLIEDGFFGQESNHTTYNLARMNMFLHNINYDKFNIQLGNTLLEPHFADEKPFDAIVSNPPYSVKWIGSDDPTLINDERFAPAGVLAPKSKADFAFVLHALHYLSAKGRAAIVCFPGIFYRGGAEAKIRQYLVDNNYVETVIALAPNLFFGTTIAVNILVLSKHKPDTTTQFIDASALFKKETNNNVLLDEHIEQIMAVFASKEEVPHVAQSVPLERIAANNYNLSVSSYVEARDTREVVDIAQLNAELKTTVARIDELRKQIDAIVAEIEGEEDEA | soluble |
| MLLMRRFAFLTSSVYFKYIPIYSQYHYSSQFPINMNPKKVAQLPVHNKSTLPPQEIIDLFKITFLEELYPKDQDNEKSPLTEQIQAVKSDLYNRDYNAAFNNDSKRIAYCCRWSPSRATSYASVFAHFPELLKIIRCEIDDKDSNVLCIGGGAGGELVALASIFTLSRDFSSKFASALKIDNEVNKKPRNLNIQLVDIADWSTVVEKLTATIKSKWLYGDSEAESFNVNFTHKDCLQMTEPQDIKIYQGLDLITLLFTTNELFTQKKVESIKFLQRLNENCAPGCHLLILESAGSYSHITINNKKFPIQFLIDTILVGNRKDKGTTGPWSLVSENDSIWYRMDPKLDYSIPLENMRFFYRLYVKN | not soluble |
| MSWMDKFDPKLQTMVKEVDAQIAPQLAKIDARILENQNKVLTSFQNHHVAESYLTGSTGYGHNDEGRDVLEAIYADVLGGEDALVRPQFVSGTHAIGVALLGLVRPGDDIVYITGKPYDTLQEVLGLAGNGIGAPQEYGIGVDYVDLLPNGAVDDDAVKARLNDKTKVVAIQRSRGYATRDSFTVDQIAAMIKVVRSVLPNVWIFVDNAYGEVSETKEPLEVGADVMAGSLFKNAGGGMAKTGGYIVGKKDLIDRISYRFTVPGLGGAEGATVGALADMYQGFFISPQTTGNAIKGAIFEAALFAKLGLDVSPAWDAPRTDLIQTVNFGNADDMVKFAKAVQANSPVDSFVTPIPEKMAGYEDQVIMAGGTFVAGSTIEFSGDGPLRPPYTLYLQGGLTYAHIKLATMGAAQSTFFDNLEHHHHHH | not soluble |
| MALMTMVQALNRALDEEMAKDPRVVVLGEDVGKRGGVFLVTEGLLQKYGPDRVMDTPLSEAAIVGAALGMAAHGLRPVAEIQFADYIFPGFDQLVSQVAKLRYRSGGQFTAPLVVRMPSGGGVRGGHHHSQSPEAHFVHTAGLKVVAVSTPYDAKGLLKAAIRDEDPVVFLEPKRLYRSVKEEVPEEDYTLPIGKAALRREGKDLTLIGYGTVMPEVLQAAAELAKAGVSAEVLDLRTLMPWDYEAVMNSVAKTGRVVLVSDAPRHASFVSEVAATIAEDLLDMLLAPPIRVTGFDTPYPYAQDKLYLPTVTRILNAAKRALDY | soluble |
| MGSDKIHHHHHHMFYRPEDGHGLPHNPFNAVVTPRPIGWISTRSGAGVNNLAPYSFFNAVAYVPPQVMFASTSTKDDQDGTKDSIANIRETGVFCVNVVEYAMRDAMNKTSAALDKGIDEFAHAGLEAVPCETIDCARVAGVPAALECRLTQIVDLPGEANKVAFGEVVGVHLRDDCLVDGVFDVTRYQPLSRLGYRDYAKVSDPFSLSRPDD | not soluble |
| GPGSMLWVDRYRPKTLKDVELYPELKEVLTRLSKAQDLPHLLFYGPSGSGKKTRAMAMLHEIYGPSVFSVRLEHKSVQVSDSKVVDIATLSSPHHIDINPSDAGNYDRAIVMQMIREIAQTVPLHSTSGNRKNVPYKVVVLNEVDKMSRTAQHALRRTMEKYMNTCRLFLLCNSTSRLIPPLRSRCLGIRVASHSKDNLKLAVQRVCEGEGRPLPSVAFLNSLALRSDGNLRRGLLMLEASALAKVDWSGNGAAIPQADWKLFLDEISHDIVAEQTPKRLHEVRLKFYDLLAQCISGETILKTLVDSLLAAVAPALQRPLIELAAKYDHNMKLGTKPILHLEAFVAAVMKLIKQQ | not soluble |
| MGSDKIHHHHHHMRVLFVAPNYYPHIGGVERHVREVSLELQKDGHSITILVPKHDSSYGDFEREGNIEVVRLNKPQTKLFTGLERVLQVAGVSGRFLKADIVNFHDVATMWRYGLWIYPILRVLGKKVYITFHGWEGHFPPKDKIVARRKLAARLADGTMCVGHFIEKWYGTRADVVTYGGVHRSSLPEAHENSVVFVGRLAKDSGIDSYLRAWEWIVRDHPELRLVICGDGAMKKELEDFVCHTGLRNVEFLGLVENPLPYVTDAKVVFTSGYLGILEAFSRKKPVVAVYDNELKKDYLEMMPDSRRLMWIARDSKEVARCVDEALLDREKTERAYRYSLENSWTKVKEDYYRLWNVDGEHGESHGGRGR | not soluble |
| IVGGKVCPKGECPWQVLLLVNGAQLCGGTLINTIWVVSAAHCFDKIKNWRNLIAVLGEHDLSEHDGDEQSRRVAQVIIPSTYVPGTTNHDIALLRLHQPVVLTDHVVPLCLPERTFSERTLAFVRFSLVSGWGQLLDRGATALELMVLNVPRLMTQDCLQQSRKVGDSPNITEYMFCAGYSDGSKDSCKGDSGGPHATHYRGTWYLTGIVSWGQGCATVGHFGVYTRVSQYIEWLQKLMRSEPRPGVLLRAPFP | soluble |
| MGSDKIHHHHHHMCRWLAYSGRSVPLEAVLFQPEHSLIDQSLNARLGHTTTNGDGFGVGWYGRHSEVPFRYRCLHPAWSDTNLRETARAVRAPLFVAHVRAATGTPTQETNCHPFRFGRWLFVHNGLIREFPLLRRDLMMAVSPQLFRWIEGSTDSEIMFFLALTFGLERDPRAALEQMVGLIEEVGHRYDVEHPINMTVCVTDGQQIVAVRYSSEADSRSLFHSTSFRQLRELYPDDPRIIAAGDDAFLVLSEPLIDVQGVWQEIPEATILVGRAGVIDYSRFTPRMPELSS | not soluble |
| MSEATTTLDGWYCLHDLRSIDWAAWKTLSSDERGQAVSEFLNVVEKWNEVATAKKGSHAMYTVVGQKADIMLMILRPTMEELNEIETELNKTTLAEYMVPAYSYVSVVELSNYLPADEDPYQNPQILARLYPELPKANHICFYPMDKRRQGDDNWYMLPMEERKKMMYSHSKIGRQYAGKVRQVISGSVGFDDFEWGVTLFADDVLQFKKLIYEMRFDEVSARYGEFGTFFVGNILPDEKVEKFLHI | not soluble |
| MLTIHTKLISAMITQSLKDHPIETCGIIAGLAGSNLPLRLIPMRNVAQSENFFMFDPQQQLQVWKEMSARHEEPVVIYHSHTGSEAYPSRSDVELAAEPQAHYVIIPTCSPHKEEIRSFRIVDQMVIEERVQIVRQYQPELEFQMMVALEHHHHHH | not soluble |
| MSLTRDEIAKYYEAHKGQFVSGRKVRLGLVIFPPRDDADALAAQVKSGAMTFADLAARHSIGPNPQNGGVIGDLLWSDLSMEWRDTLSELKPGDVSRVFLVEGRKAVLQLVASNEGKGQALDDVAEEIENILREPKMQERLQEYIGQLRSRAVIDIREGHHHHHH | soluble |
| MKIKEVRITGFRSYKDNTNVSGFSPRSNVVVGRNGSGKSNFFHAIQFVLSDEYAHLKEEQRLGLLHESTGPKVAHARVEITFDNSEKRLMAFENSEVKIVRQVGKKKDQYYIDNKMVPRAEVVNLMESAGFSRSNPYYIVKQGKINELATSPDAYKLKLLREVAGTRVYDERKEESLKILKETKMKTEKIQGLLKYIDERLQTLENEKEDLKEYQKLDKTKRSVEYTMYDNTNKEAIKEKTKLDEQKVELNQKDNNVKSQLNDVIAEMAKLKTDKKKLESLGRGLREDKETLQAEETKMVEEKMTLKLEIDSLNEENTRERQGRQNAEHSLQGVGDEIFKNEEELDTIKPEYAKLLEEESRLKTDIRIDESRAKEILAKQGQRSQFSSVDDRDKFLRNEIRRISGLIADNKEREETIQKELADVEREDEKLNNEIQSISRTIDENRYEMDTFAAKSTSLKQEYDAAYVAQQTAAREEKAIRDKIGNTEQDISAANDQLRRIVARPVYNGITGVRKVIEEFKHDNRNGQHDDVINGYYGTVIELAEVPDMFRTAVEVIAQNRLFYHVVETDRIATKILRKFNEMQLPGEINFFPMNRVSAPRQRDLSNNSNARPMSDVIDYEVQYDKVFKSITANVIIVRTLDQAARDLRNEGFDVVSVDGDQMSKKGVMTGGFIDKKRSKLELHTQKDRFTKELAELQKSLAEAEKMVRERTQEAEKIRNRMQQHENQIGDFHRKHRELTEAKNAISQQFYMVTSTKEPKKDQLLGIKNHLRELLAQKENFEQEIGSNMSSQLTSDEEQTVKKLRKKVDEMTKQLATVSRRRMDLMHRKNAIENLLTKKLYKTKESLTAKNPKFFLQRVDDISDNERRHKLENANAQLTSLLTRMESTRKQLATAISELQDYETKEKALQINIDNVLEQQRDLEKQQADFQLQYDKITAKEDEVKQKREDSLKKLILSRYSIKTRKNQFSYEISDSEEVGAKREPIEHRKLKISTFCLEYRAKLEKVHSNMRLLGALPTDTFSKWQNVKPRELEKKLLECVNELKKYENVNKKALDQYMTASSQKEELTKRMAEQKKSEDSIEELLKVLENRKYEAIDLTFKQVKKNFEQVFKQLVPHGRGKMQMRAREQRDDEEGINSVELYEGISVLVSFVSDDGDSETREMTQLSGGQKSLVALAIIFSIQKCDPAPFYLFDEIDAALDAQHRKSVADMIQSLSDQAQFVTTTFRPELLATAEKFYGVRFRNKVSHIDSVTREQAYDFVEDDTTHG | not soluble |
